Measured values from publication PMC10397247.

Assays:
4H3185-bH = molecular target: T1, 4H3185-bH; assay: two-hybrid library CCNG1;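 further: natural log of median RNA to DNA barcode read ratio; higher means stronger binding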
T1 chain: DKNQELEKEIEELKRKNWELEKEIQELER

4H331-bH = molecular target: T2, 4H331-bH; assay: two-hybrid library CCNG1;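 further: natural log of median RNA to DNA barcode read ratio; higher means stronger binding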
T2 chain: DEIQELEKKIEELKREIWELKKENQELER

4H3354-bH = molecular target: T3, 4H3354-bH; assay: two-hybrid library CCNG1;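 further: natural log of median RNA to DNA barcode read ratio; higher means stronger binding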
T3 chain: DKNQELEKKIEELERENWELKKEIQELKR

4H338-bH = molecular target: T4, 4H338-bH; assay: two-hybrid library CCNG1;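 further: natural log of median RNA to DNA barcode read ratio; higher means stronger binding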
T4 chain: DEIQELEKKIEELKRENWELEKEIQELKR

4H3427-bH = molecular target: T5, 4H3427-bH; assay: two-hybrid library CCNG1
T5 chain: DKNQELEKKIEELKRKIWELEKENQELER

4H3782-bH = molecular target: T6, 4H3782-bH; assay: two-hybrid library CCNG1
T6 chain: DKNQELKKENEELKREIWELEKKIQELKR

4H3855-bH = molecular target: T7, 4H3855-bH; assay: two-hybrid library CCNG1
T7 chain: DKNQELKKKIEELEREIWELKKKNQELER

4H4001-bN = molecular target: T8, 4H4001-bN; assay: two-hybrid library CCNG1
T8 chain: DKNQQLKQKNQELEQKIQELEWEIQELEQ

4H454-bH = molecular target: T9, 4H454-bH; assay: two-hybrid library CCNG1
T9 chain: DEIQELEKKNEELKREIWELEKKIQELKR

4H568-bH = molecular target: T10, 4H568-bH; assay: two-hybrid library CCNG1
T10 chain: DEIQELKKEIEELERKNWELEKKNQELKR

4H607-bH = molecular target: T11, 4H607-bH; assay: two-hybrid library CCNG1
T11 chain: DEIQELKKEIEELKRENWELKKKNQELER

4H687-bH = molecular target: T12, 4H687-bH; assay: two-hybrid library CCNG1
T12 chain: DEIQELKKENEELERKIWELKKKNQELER

4H717-bH = molecular target: T13, 4H717-bH; assay: two-hybrid library CCNG1
T13 chain: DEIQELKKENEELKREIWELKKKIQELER

4H72-bH = molecular target: T14, 4H72-bH; assay: two-hybrid library CCNG1
T14 chain: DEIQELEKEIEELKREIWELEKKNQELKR

4H754-bH = molecular target: T15, 4H754-bH; assay: two-hybrid library CCNG1
T15 chain: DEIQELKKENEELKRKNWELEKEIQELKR

4H797-bH = molecular target: T16, 4H797-bH; assay: two-hybrid library CCNG1
T16 chain: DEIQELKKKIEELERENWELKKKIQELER

4H883-bH = molecular target: T17, 4H883-bH; assay: two-hybrid library CCNG1
T17 chain: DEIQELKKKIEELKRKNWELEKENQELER

4H908-bH = molecular target: T18, 4H908-bH; assay: two-hybrid library CCNG1
T18 chain: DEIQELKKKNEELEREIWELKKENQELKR

4H918-bH = molecular target: T19, 4H918-bH; assay: two-hybrid library CCNG1
T19 chain: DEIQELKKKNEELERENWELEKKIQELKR

4H953-bH = molecular target: T20, 4H953-bH; assay: two-hybrid library CCNG1
T20 chain: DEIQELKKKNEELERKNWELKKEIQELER

4H967-bH = molecular target: T21, 4H967-bH; assay: two-hybrid library CCNG1
T21 chain: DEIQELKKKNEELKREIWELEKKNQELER

O4 [1] = molecular target: T22, O4; assay: two-hybrid library CC0; conditions: mean of both orientations
T22 chain: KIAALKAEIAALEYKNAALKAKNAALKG

O5 [2] = molecular target: T23, O5; assay: two-hybrid library CC0; conditions: mean of both orientations
T23 chain: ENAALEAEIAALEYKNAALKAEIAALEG

O6 [3] = molecular target: T24, O6; assay: two-hybrid library CC0; conditions: mean of both orientations
T24 chain: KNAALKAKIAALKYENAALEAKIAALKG

O7 [4] = molecular target: T25, O7; assay: two-hybrid library CC0; conditions: mean of both orientations
T25 chain: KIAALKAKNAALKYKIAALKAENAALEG

O8 [5] = molecular target: T26, O8; assay: two-hybrid library CC0; conditions: mean of both orientations
T26 chain: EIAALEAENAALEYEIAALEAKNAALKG

O9 [6] = molecular target: T27, O9; assay: two-hybrid library CC0; conditions: mean of both orientations
T27 chain: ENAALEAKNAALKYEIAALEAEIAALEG

O3 = molecular target: T28, O3; assay: two-hybrid library CCNG1
T28 chain: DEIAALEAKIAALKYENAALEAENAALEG

O4 [7] = molecular target: T29, O4; assay: two-hybrid library CCNG1
T29 chain: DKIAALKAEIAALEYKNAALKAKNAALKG

O5 [8] = molecular target: T30, O5; assay: two-hybrid library CCNG1
T30 chain: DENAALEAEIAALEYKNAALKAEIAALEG

O6 [9] = molecular target: T31, O6; assay: two-hybrid library CCNG1
T31 chain: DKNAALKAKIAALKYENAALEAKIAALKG

O7 [10] = molecular target: T32, O7; assay: two-hybrid library CCNG1
T32 chain: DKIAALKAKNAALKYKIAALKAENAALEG

O8 [11] = molecular target: T33, O8; assay: two-hybrid library CCNG1
T33 chain: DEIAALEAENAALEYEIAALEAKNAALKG

O9 [12] = molecular target: T34, O9; assay: two-hybrid library CCNG1
T34 chain: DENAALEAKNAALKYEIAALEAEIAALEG

P8A-bA = molecular target: T35, P8A-bA; assay: two-hybrid library CCNG1
T35 chain: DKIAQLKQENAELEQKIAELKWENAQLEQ

P9A-bA = molecular target: T36, P9A-bA; assay: two-hybrid library CCNG1
T36 chain: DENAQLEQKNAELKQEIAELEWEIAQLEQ

Binder: DKNQELEKEIEELKRKNWELEKEIQELER [4H3185-bH]
- interaction score (4H3185-bH): 0.0268
- interaction score (4H331-bH): -0.701
- interaction score (4H3354-bH): -0.583
- interaction score (4H338-bH): -0.56
- interaction score (4H3427-bH): -0.801
- interaction score (4H3782-bH): -0.522
- interaction score (4H3855-bH): -0.899
- interaction score (4H4001-bN): 0
- interaction score (4H454-bH): -1.16
- interaction score (4H568-bH): -2.61
- interaction score (4H607-bH): -0.833
- interaction score (4H687-bH): -0.899
- interaction score (4H717-bH): -0.724
- interaction score (4H72-bH): -1.26
- interaction score (4H754-bH): -1.15
- interaction score (4H797-bH): -1.22
- interaction score (4H883-bH): -0.72
- interaction score (4H908-bH): -0.797
- interaction score (4H918-bH): -1.09
- interaction score (4H953-bH): -1.21
- interaction score (4H967-bH): -1.56

Binder: KIAALKAEIAALEYKNAALKAKNAALKG [O4]
- interaction score (O4 [1]): -2.65
- interaction score (O5 [2]): -2.68
- interaction score (O6 [3]): -2.42
- interaction score (O7 [4]): -2.75
- interaction score (O8 [5]): -2.63
- interaction score (O9 [6]): -2.71

Binder: DEIAALEAKIAALKYENAALEAENAALEG [O3]
- interaction score (O3): -2.29
- interaction score (O4 [7]): 2.05
- interaction score (O5 [8]): -2
- interaction score (O6 [9]): -2.73
- interaction score (O7 [10]): -2.58
- interaction score (O8 [11]): -2.29
- interaction score (O9 [12]): -2.28

Binder: DKIAQLKQENAELEQKIAELKWENAQLEQ [P8A-bA]
- interaction score (P8A-bA): -0.497
- interaction score (P9A-bA): -0.256
